B1: CrtJ (natural protein, Rhodobacter capsulatus, UniProt P26167 1-469, looked up)
chain: MTSDGSFLMRREALQRVSPDLLADIVTSACDIALVVSPGRVVESVMVNPQFGSAERFAAWQGARLSQLFSPESAQKLENRLADGPEPGRSLQLELTHAADAFTLPVRYTITRSGEDGTLLLIGRDMQPLAEVQQQLVKAQLALERDYEAQREIETRYRVLLEAHPAPLLIVSMSTGRIADLNLAAAAMIGATRAELIDAPVGQELDGRRRGEFLENLAKIAGSDPLGAVELTIRRSRRKVTVTATLFRAAGDRLLLCRLGEAEARRTRVDDTVELSERLFLKGIDAMVFLDADGTIRAANDAFLYLTDAGSAALVQGRSFADFLSRGAVDLNVLLDNVKRIGHLRHYVTRLNTDFSGQVTVELSATLFHDRATPTIALVIRDSNLADATRIMPGMASNEGLRNVMQMVGYATLRDIVSETTEIIEKMCIETALELTGNNRVAAAELLSLSRQSLYVKLRKFGLLSKDAE
notes: CrtJ, aerobic repressor of photosystem genes, Rhodobacter capsulatus (strain SB1003 is the wild-type parent); calculated molecular mass of the dimer 101.0 kDa; also called CrtJ2; CrtJ dimer; source: E. coli BL21(DE3) bearing pSUMO-CrtJ, overexpressed as SUMO-tagged protein, purified according to previous studies

The subject of series [1] is CrtJ;AerR (Rhodobacter capsulatus;Rhodobacter capsulatus). The series can be described thus: EMSA. Particulars: EMSA with 10 nM bchC DNA, oxidizing (O2) or reducing (10 mM DTT), Hill fit; buffer, salt, pH and temperature not in the material (reported previously, ref. 20). Background: Mobility shift assays separate free from complexed probe on a gel.
Series [2] deals with the molecule itself. The series can be described thus: SEC-MALS; size exclusion chromatography coupled with multiangle light scattering (Wyatt), analysed with ASTRA 6, BSA for calibration; CrtJ alone and CrtJ with added AerR.
The target in the series “CrtJ” is B1. Described as above. Particulars: both partners purified.

Consider bchC promoter EMSA probe, 325 bp, for which the binding signal (fold higher affinity than CrtJ alone) in series [1] was found to be 6.

Take B1: the stoichiometry N (in general, a count of units in the complex or per binding partner) in series [2] amounted to 2.

B2: AerR (natural protein)
chain: MNGVAELQTVLVNRMVELATGPELGAMDLLFDEFRAAHVPVEEMATHYIPEAARQIGAAWDSDRIGFAQVTIAISRLQELLHALQTLVTADSVGCANGATVLLIVPPGEQHTLGALIVAMELRRRGVSVRIVFAPGLSDLSRLMATTRFDAALITVGSMDRVEICAKLVKTLSSLTKGRMRVAIGGAIVSQRAEALARTGADLVTNDLSLVISEFSLV
Regarding B2, the “stoichiometry N” value with CrtJ was 0.5 AerR per CrtJ chain (1:2).

Values taken from paper PMC5362033, “The Vitamin B12-Dependent Photoreceptor AerR Relieves Photosystem Gene Repression by Extending the Interaction of CrtJ with Photosystem Promoters” (mBio, 2017).
